In patent publication US8318206:

Columns and labels:
[1] = molecular target: T1, Fmoc-Gly-d-Phe-d-Cys (peptide 2) (not fully specified)
T1 chain: GFC

[2] = molecular target: T2, Fmoc-Gly-Phe-Cys-NH2 (peptide 1)
T2 chain: GFC

B1: thermolysin from B. thermoproteolyticus Rokko (protein)
chain: ITGTSTVGVGRGVLGDQKNINTTYSTYYYLQDNTRGNGIFTYDAKYRTTLPGSLWADADNQFFASYDAPAVDAHYYAGVTYDYYKNVHNRLSYDGNNAAIRSSVHYSQGYNNAFWNGSQMVYGDGDGQTFIPLSGGIDVVAHELTHAVTDYTAGLIYQNESGAINEAISDIFGTLVEFYANKNPDWEIGEDVYTPGISGDSLRSMSDPAKYGDPDHYSKRYTGTQDNGGVHINSGIINKAAYLISQGGTHYGVSVVGIGRDKLGKIFYRALTQYLTPTSNFSQLRAAAVQSATDLYGSTSQEVASVKQAFDAVGVK
dispersion of nanoparticle aggregate [1]: nanoparticles functionalised with Fmoc-Gly-d-Phe-d-Cys did not disperse upon introduction of thermolysin | HPLC of the supernatant after thermolysin treatment (cleaved fragment) [2]: HPLC of the supernatant detected the presence of Fmoc-Gly only | shift in the plasmon resonance peak (UV-visible spectra), 6 h after addition of 7.2 nM thermolysin [2]: a clear shift in the plasmon resonance peak from 565 nm to 532 nm 6 h after addition of 7.2 nM thermolysin | Δ ratio A/D over a period of 47 h, 7.2 nM thermolysin [2]: The Δ ratio A/D increases over a period of 47 h for 7.2 nM and 2.08 zM, to 96.5% and 25.2% respectively | Δ ratio A/D over a period of 47 h, 2.08 zM thermolysin [2]: The Δ ratio A/D increases over a period of 47 h for 7.2 nM and 2.08 zM, to 96.5% and 25.2% respectively
